T1: CD27 protein (His-tagged, Sino Biological Inc. 10039-H08B1) (human, UniProt P26842 20-192)
T1 construct: bought protein coated on ELISA plates; also called TNFRSF7; not shown: His tag
T1 sequence (looked up): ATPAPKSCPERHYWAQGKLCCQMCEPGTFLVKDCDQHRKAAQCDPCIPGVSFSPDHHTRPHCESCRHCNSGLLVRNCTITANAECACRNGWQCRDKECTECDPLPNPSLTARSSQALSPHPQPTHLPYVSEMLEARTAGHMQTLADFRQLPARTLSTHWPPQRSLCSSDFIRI

T2: CD27 expressed on the cell surface of HT1080_CD27 cells (human, UniProt P26842 20-260)
T2 sequence (looked up): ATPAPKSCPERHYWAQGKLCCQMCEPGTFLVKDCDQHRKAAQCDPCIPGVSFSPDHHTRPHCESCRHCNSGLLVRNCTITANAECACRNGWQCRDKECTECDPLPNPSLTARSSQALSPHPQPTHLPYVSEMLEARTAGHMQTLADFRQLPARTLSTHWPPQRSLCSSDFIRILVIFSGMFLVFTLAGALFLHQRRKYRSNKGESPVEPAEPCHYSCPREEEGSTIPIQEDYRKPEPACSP


What was measured:
[1] = molecular target: T1, CD27 protein (His-tagged, Sino …); experiment: ELISA, coated His-tagged CD27
[2] = molecular target: T2, CD27 expressed on the cell surface of …; experiment: cell-based or functional assay
[3] = molecular target: T2, CD27 expressed on the cell surface of …; experiment: HT1080_CD27 cells, imaging
Further: test concentration or dose not given here.

Binder | ELISA [abs. corr.] [1] [abs. corr.] | Functional assay Cross-linked by F(ab′)2 fragment IL-8 [2] [abs. corr.] | Functional assay IL-8 [2] [abs. corr.] | Cellular binding assay [RFU] [3] [RFU]
P018.S.01.A.A06 (antibody, V domains shown, V regions on human Ig constant parts; also called AB27_3) VH: QSVEESGGRLVTPGTPLTLTCTVSGIDLSTYAMSWVRQAPGKGLEWIGIIYGSGYTYYASWAKGRATISKTSSTTVDLKITSPTTEDTATYFCASGYGISSGNFLHFNLWGQGTLVTVSS VL: AYDMTQTPASVEVAVGGTVTIKCQASESIYFNLAWYQQKPGQRPKLLIYRASTLASGVSSRFKGSGSGTQFTLTISGVESADAATYYCQQGYDSSHIDNAFGGGTEVVVT | 3.09 | 1.92 | 0.566 | 287
P018.S.05.A.B06 (antibody, V domains shown, V regions on human Ig constant parts; also called AB27_84) VH: QSVEESGGRLVTPGTPLTLTCTVSGFSLNTYVMSWVRQAPGKGLEWIGYIDYGGAPYYASWAKGRFTISKTSTTVELKITSPTIEDTATYFCARGGYGGYVLVTVLWGPGTLVTVSS VL: DVVMTQTPASVSEPVGGTVTIKCQASQNIYSSLAWYQQKPGQPPKLLIYQASTLASEVPSRFKGSGSGTEFTLTINDLESADAATYYCQTYYGGSTYGNGFGGGTEVVVE | 3.1 | 1.7 | 0.22 | 309
P018.S.07.A.A02 (antibody, V domains shown, V regions on human Ig constant parts; also called AB27_113) VH: QSVEESGGRLVTPGTPLTLTCTVSGFSLSSYVMSWVRQAPGKGLEWIGYIDYGGAPYYASWAKGRFTISKTSTTVELKITSPTIEDTATYFCARGGYGGYVLVTVLWGPGTLVTVSS VL: DVVMTQTPASVSEPVGGTVTIKCQASQNIYSSLAWYQQKPGQPPKLLIYQASRLASEVPSRFKGSGSGTEFTLTISDLESADAATYYCQTYYGGSTYGNGFGGGTEVVVE | 3.08 | 1.85 | 0.059 | 314
P018.S.03.A.D04 (antibody, V domains shown, V regions on human Ig constant parts; also called AB27_49) VH: QEHLEESGGGLVQPGGTLTLTCKASGIDFSSSYYMCWVRQAPGKGLERLACTYNRDGSTYYASWAKGRFTISKTSSTTVTLQMTSLTVADTATYFCARDDGYPGSGYVLNLWGPGTLVTVSS VL: DVVMTQTPASVEAAVGGTVTIRCQASQSVSNYFSWYQQKPGQPPKLLIYGASNLESGVPSRFKGSGSGTEFTLTISGVQSDDAATYYCQGGYYSSNTDNNSFGGGTEVVVK | 3.1 | 1.23 | 0.513 | 270

Next, values leading:

ELISA [abs. corr.] [1] [abs. corr.] | Functional assay Cross-linked by F(ab′)2 fragment IL-8 [2] [abs. corr.] | Functional assay IL-8 [2] [abs. corr.] | Cellular binding assay [RFU] [3] [RFU] | Binder
3.08 | 1.64 | -0.032 | 329 | P018.S.07.A.D05 (antibody, V domains shown, V regions on human Ig constant parts; also called AB27_124) VH: QSLEESGGDLVKPEGSLTLTCTASGFSFSSSYWICWVRQAPGKGLEWIGCMITGRGNTYYATWAKGRFTISKTSSTTVTLQMTSLTAADTATYFCARGPGGADPINLWGPGTLVTVSS VL: DVVMTQTPASVSEPVGGTVTIKCQASQNIYNNLAWYQQKPGQPPKLLIYLASTLASGVPSRFEGSGSGTEFTLTISGVQSDDAATYYCQSTYDGSSYVPNAFGGGTEVVVK
3.1 | 1.28 | 0.1 | 321 | P018.S.05.A.D03 (antibody, V domains shown, V regions on human Ig constant parts; also called AB27_86) VH: QEQLEESGGDLVQPEGSLTLTCTVSGFSFNSNYWICWVRQAPGKGLEWIACIMTGDGSTYYATWAKGRFTISKTSSTTVTLQMTSLTAADTATYFCARGYDGIHGGDNYGHVFNLWGPGTLVTVSS VL: AFELTQTPFSVSAVVGGTVTINCQASENIYSLLAWYQQKPGQPPKLLIYRASTLASGVPSRFKGSGSGTQFTLIISDLESGDAATYYCQSYYINSSNSFGGGTEVVVK
3.1 | 1.11 | 0.211 | 395 | P018.S.08.A.F01 (antibody, V domains shown, V regions on human Ig constant parts; also called AB27_140) VH: QSVEESGGRLVTPGTPLTLTCTVSGSDISGYALGWVRQAPGKGLEYIGVIAADGNAYYASWAKGRFTISRTSTTVDLKMTSLTTEDTATYFCARGYSSGWGTYGYFDLWGQGTLVTVSS VL: DIVMTQTPASVSAAVGGTVTIKCQASEDIYSYLAWYQQKPGQPPKLLIYRASTLESGVPSRFKGSGSGTQFTLTISDLESADAATYYCQSYYYSHSTTYSNVFGGGTEVVVK

Reference: US20210253725A1 (BIONTECH, published 2021)
